Source: patent US20260146107A1 (ALLIGATOR BIOSCIENCE, published 2026)

Tests used:
[1] = biological target: human CD40 expressed on cells (CD40 reporter cells, HEK Blue CD40L cells, primary B cells, tumour APCs) (human, UniProt P25942 21-277); assay: cell-based or functional assay
[2] = biological target: T1, human CEACAM5, recombinant (R&D Systems #4128-CM-050) (human, UniProt P06731 35-685); assay: Octet BLI, captured bsAb, soluble antigen, 1:1 fit
T1 construct: Bought; coated in ELISA and used as monomeric analyte in Octet; also called hCEACAM-5; Human CEACAM5-His; not shown: His tag
T1 sequence (looked up): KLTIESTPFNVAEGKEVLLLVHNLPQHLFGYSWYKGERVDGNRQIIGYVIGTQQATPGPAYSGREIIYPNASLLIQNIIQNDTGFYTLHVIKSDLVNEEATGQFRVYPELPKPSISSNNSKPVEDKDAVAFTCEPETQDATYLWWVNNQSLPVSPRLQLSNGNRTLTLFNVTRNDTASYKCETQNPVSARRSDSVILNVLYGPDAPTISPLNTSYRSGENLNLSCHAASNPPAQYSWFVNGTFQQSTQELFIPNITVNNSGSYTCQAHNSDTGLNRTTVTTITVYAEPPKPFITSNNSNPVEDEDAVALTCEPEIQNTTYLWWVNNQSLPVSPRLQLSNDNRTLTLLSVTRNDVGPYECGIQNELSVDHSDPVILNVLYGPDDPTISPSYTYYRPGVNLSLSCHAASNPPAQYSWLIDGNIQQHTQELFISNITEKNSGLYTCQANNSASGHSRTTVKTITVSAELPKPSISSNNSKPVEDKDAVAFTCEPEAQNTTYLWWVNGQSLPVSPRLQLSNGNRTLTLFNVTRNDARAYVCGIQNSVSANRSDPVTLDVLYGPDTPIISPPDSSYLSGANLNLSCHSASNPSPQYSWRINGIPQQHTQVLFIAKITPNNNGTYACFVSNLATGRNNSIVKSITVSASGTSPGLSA
Protocol: (§1) Kinetic measurements were performed in the Octet RED96 platform using several different setups. […] Monomeric human CD40-His-Avi tag (Acro Biosystems #CD0-H5228), monomeric Human CEACAM5-His (R&D Systems #4128-CM-050) or monomeric Cynomolgus CEACAM5-His (Sino Biological #90891-C08H) were ½ serially diluted in 1× kinetic buffer (Sartorius) starting at 500 nM or 100 nM. […] Binding kinetics was studied in 1× kinetic buffer where association was allowed for 100 sec, 300 sec or 600 sec followed by dissociation for 100 sec, 300 sec or 3600 sec. Sensor tips were regenerated with 10 mM Glycine pH 1.7. Data generated were referenced by subtracting blank or parallel buffer blank, the baseline was aligned to the y-axis, inter-step correction by alignment against dissociation was performed and the data was smoothed by Savitzky-Golay filter in the data analysis software (v9.0.0.14). The processed data was fitted using a 1:1 Langmuir binding model with R² or X² as a measurement of fitting accuracy.
Association was measured for 100 sec and dissociation for 300 sec.

[3] = biological target: T1, human CEACAM5, recombinant (R&D Systems …); assay: dual-target ELISA: hCEACAM-5 coated, bsAb titrated, detected with biotinylated hCD40-muIg and streptavidin-HRP, luminescence; signal needs both targets bound
Protocol: (§2) 96-well plates were coated with 0.5 μg/mL antigen, hCEACAM-1 (2244-CM-050, R&D Systems), hCEACAM-5 (4128-CM-050, R&D Systems), hCEACAM-6 (3934-CM-050, R&D Systems) or CEACAM-8 (9639-CM-050, R&D Systems) in PBS over night at 4° C. After washing in PBS/0.05% Tween 20 (PBST), the plates were blocked with PBST, 2% BSA for at least 30 minutes at room temperature before a second round of washing. RUBY bsAbs, diluted in PBST, 0.5% BSA, were then added and allowed to bind for at least 1 hour at room temperature. […] Finally, a final round of washing was performed and bound complexes detected using SuperSignal Pico Luminescent as substrate and luminescence signals were measured using Fluostar Optima.

[4] = biological target: T1, human CEACAM5, recombinant (R&D Systems …); assay: Octet BLI, captured bsAb, monomeric CEACAM5 in solution, 1:1 fit
Protocol: as §1
Association was measured for 100 sec and dissociation was measured for 100 sec.

[5] = biological target: T2, biotinylated human CEACAM5-His (Acro Biosystems #CE5-H82E0) (human, UniProt P06731 35-685, biotinylated (site not stated)); assay: Octet BLI, captured CEACAM5-biotin, bsAb in solution, 1:1 fit
T2 construct: also called CEACAM5-biotin; captured human CEACAM5-biotin; not shown: His tag
T2 sequence (looked up): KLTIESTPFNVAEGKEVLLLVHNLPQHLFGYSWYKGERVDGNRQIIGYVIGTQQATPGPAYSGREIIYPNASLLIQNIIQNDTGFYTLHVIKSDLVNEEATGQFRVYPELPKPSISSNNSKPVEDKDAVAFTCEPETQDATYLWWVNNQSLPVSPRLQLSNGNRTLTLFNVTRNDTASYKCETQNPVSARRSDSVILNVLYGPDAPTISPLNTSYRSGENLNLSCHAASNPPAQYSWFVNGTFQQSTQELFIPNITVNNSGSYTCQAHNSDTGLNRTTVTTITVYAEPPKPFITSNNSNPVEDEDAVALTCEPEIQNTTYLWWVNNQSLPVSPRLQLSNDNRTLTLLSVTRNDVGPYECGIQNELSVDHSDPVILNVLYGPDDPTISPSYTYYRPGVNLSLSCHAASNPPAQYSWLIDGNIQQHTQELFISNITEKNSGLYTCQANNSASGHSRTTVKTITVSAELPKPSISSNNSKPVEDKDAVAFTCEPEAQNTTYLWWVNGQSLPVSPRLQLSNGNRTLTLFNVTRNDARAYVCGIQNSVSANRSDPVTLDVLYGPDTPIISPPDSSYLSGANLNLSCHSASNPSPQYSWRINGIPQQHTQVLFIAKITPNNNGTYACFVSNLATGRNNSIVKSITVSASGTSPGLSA
Protocol: as §1
Association was measured for 100 sec and dissociation measured for 100 sec.

[6] = biological target: T1, human CEACAM5, recombinant (R&D Systems …); assay: ELISA, antigen coated at 0.5 µg/mL, bsAb titrated, anti-human kappa-HRP, luminescence
Protocol: as §2

[7] = biological target: T3, biotinylated human CD40-mouse Fc (Ancell #504-030) (human, UniProt P25942 21-193, biotinylated (site not stated)); assay: Octet BLI, captured CD40mFc-biotin, bsAb in solution, 1:1 fit
T3 construct: Bought; also called hCD40-muIg; CD40mFc-biotin; not shown: mouse Ig Fc
Protocol: as §1
TABLE 12 Summary of kinetic profiles measured in Octet. Bispecific antibodies in solution (25-0.8 nM, 10-2 or 5-0.7 nM.) interacting with captured CD40mFc-biotin. Association was measured for 300 sec or 600 sec and dissociation was measured for 300 sec or 3600 sec

T3 sequence (P25942 21-193): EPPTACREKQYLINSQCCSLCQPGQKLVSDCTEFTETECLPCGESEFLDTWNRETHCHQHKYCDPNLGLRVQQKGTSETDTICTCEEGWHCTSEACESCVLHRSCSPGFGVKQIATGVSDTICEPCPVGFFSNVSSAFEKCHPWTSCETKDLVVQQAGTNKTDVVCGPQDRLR
human CD40 expressed on cells (CD40 reporter cells, HEK Blue CD40L cells, primary B cells, tumour APCs), sequence (P25942 21-277): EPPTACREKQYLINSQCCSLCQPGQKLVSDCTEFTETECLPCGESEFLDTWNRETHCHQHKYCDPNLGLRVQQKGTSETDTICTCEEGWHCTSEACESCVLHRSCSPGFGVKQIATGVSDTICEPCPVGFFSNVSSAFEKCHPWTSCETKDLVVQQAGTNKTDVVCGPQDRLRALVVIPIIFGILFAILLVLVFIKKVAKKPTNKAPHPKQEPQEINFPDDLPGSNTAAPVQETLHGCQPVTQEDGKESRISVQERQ

B1: AC_05339 (bispecific antibody)
heavy 1: not shown
light: DIQMTQSPSSLSASVGDRVTITCRASQSISSYLNWYQEKPGKAPKLLIYAASSLQSGVPSRFSGSGSGTDFTLTISSLQPEDFATYYCQQAGNPHTFGQGTKLEIKRTVAAPSVFIFPPSDEQLKSGTASVVCYLNNFYPREAKVQWKVDNALQSGNSQESVTEQDSKDSTYSLWSTLTLSKADYEKHKVYACEVTHQGLSSPVTKSFNRGEC
heavy 2: EVQLLESGGGLVQPGGSLRLSCAASGFTFSTYGMHWVREAPGKGLEWLSYISGGSSYIFYADSVRGRFTISRDNSENALYLQMNSLRAEDTAVYYCARILRGGSGMDLWGQGTLVTVSSASTKGPSVFPLAPSSKSTSGGTAALGCLVKDYFPEPVTVSWNSGALTSGVHTFPAVLQSSGLYSLSSVVEVPSSSLGTQTYICNVNHKPSNTKVDKKVEPKSC
notes: RUBY format, CEACAM5xCD40; also called AC_5339
- EC50 of SEAP release, HEK Blue CD40L reporter cells, bsAb crosslinked to CHO-CEACAM5 cells, 0 Raji sink cells/well [1]: 0.03 nM
- EC50 of SEAP release, same assay, 10 000 Raji sink cells/well [1]: 0.05 nM
- EC50 of SEAP release, same assay, 30 000 Raji sink cells/well [1]: 0.08 nM
- EC50 of SEAP release, same assay, 90 000 Raji sink cells/well [1]: 0.23 nM
- Kd [2]: < 0.001 nM
- koff [2]: < 1e-07 s⁻¹
- kon [2]: 520000 M⁻¹ s⁻¹
- EC50 (read off the curve) [3]: ~0.3 nM
- Kd [4]: 1.8 nM
- koff [4]: 0.00042 s⁻¹
- kon [4]: 240000 M⁻¹ s⁻¹

B2: Multi44 (bispecific antibody)
heavy 1: not shown
light: DIQMTQSPSSLSASVGDRVTITCRASQSISSYLNWYQEKPGKAPKLLIYAASSLQSGVPSRFSGSGSGTDFTLTISSLQPEDFATYYCQQWGYLLTFGQGTKLEIKRTVAAPSVFIFPPSDEQLKSGTASVVCYLNNFYPREAKVQWKVDNALQSGNSQESVTEQDSKDSTYSLWSTLTLSKADYEKHKVYACEVTHQGLSSPVTKSFNRGEC
heavy 2: EVQLLESGGGLVQPGGSLRLSCAASGFTFSTYGMHWVREAPGKGLEWLSYISGGSSYIFYADSVKGRFTISRDNSKNTLYLQMNSLRAEDTAVYYCARILRGGSGMDLWGQGTLVTVSSASTKGPSVFPLAPSSKSTSGGTAALGCLVKDYFPEPVTVSWNSGALTSGVHTFPAVLQSSGLYSLTSVVEVPSSSLGTQTYICNVNHKPSNTKVDKKVEPKSC
notes: Optimised RUBY format, CEACAM5xCD40
- EC50 of SEAP release, HEK Blue CD40L reporter cells, bsAb crosslinked to CHO-CEACAM5 cells, 0 Raji sink cells/well [1]: 0.02 nM
- EC50 of SEAP release, same assay, 10 000 Raji sink cells/well [1]: 0.05 nM
- EC50 of SEAP release, same assay, 30 000 Raji sink cells/well [1]: 0.08 nM
- EC50 of SEAP release, same assay, 90 000 Raji sink cells/well [1]: 0.16 nM
- EC50 (read off the curve) [3]: ~0.8 nM
- Kd [4]: 13 nM
- koff [4]: 0.0023 s⁻¹
- kon [4]: 180000 M⁻¹ s⁻¹
- Kd [5]: < 0.001 nM
- koff [5]: < 1e-07 s⁻¹
- kon [5]: 150000 M⁻¹ s⁻¹
- EC50 (read off the curve) [6]: ~0.5 nM

B3: Multi48 (bispecific antibody)
heavy 1: not shown
light: DIQMTQSPSSLSASVGDRVTITCRASQSISSYLNWYQEKPGKAPKLLIYAASSLQSGVPSRFSGSGSGTDFTLTISSLQPEDFATYYCQQYGRNPPTFGQGTKLEIKRTVAAPSVFIFPPSDEQLKSGTASVVCYLNNFYPREAKVQWKVDNALQSGNSQESVTEQDSKDSTYSLWSTLTLSKADYEKHKVYACEVTHQGLSSPVTKSFNRGEC
heavy 2: EVQLLESGGGLVQPGGSLRLSCAASGFTFGDHAMSWVREAPGKGLEWVSAISGYGHSTGYADSVKGRFTISRDNSKNTLYLQMNSLRAEDTAVYYCARNHYRVGLDYWGQGTLVTVSSASTKGPSVFPLAPSSKSTSGGTAALGCLVKDYFPEPVTVSWNSGALTSGVHTFPAVLQSSGLYSLTSVVEVPSSSLGTQTYICNVNHKPSNTKVDKKVEPKSC
notes: Optimised RUBY format, CD40xCEACAM5
- Kd [4]: < 0.001 nM
- koff [4]: < 1e-07 s⁻¹
- kon [4]: 24000 M⁻¹ s⁻¹
- EC50 (read off the curve) [6]: ~3 nM

B4: Multi49 (bispecific antibody)
heavy 1: not shown
light: DIQMTQSPSSLSASVGDRVTITCRASQSISSYLNWYQEKPGKAPKLLIYAASSLQSGVPSRFSGSGSGTDFTLTISSLQPEDFATYYCQQYGRNPPTFGQGTKLEIKRTVAAPSVFIFPPSDEQLKSGTASVVCYLNNFYPREAKVQWKVDNALQSGNSQESVTEQDSKDSTYSLWSTLTLSKADYEKHKVYACEVTHQGLSSPVTKSFNRGEC
heavy 2: EVQLLESGGGLVQPGGSLRLSCAASGFTFYDHAMSWVREAPGKGLEWVSAISGSYGSTGYADSVKGRFTISRDNSKNTLYLQMNSLRAEDTAVYYCARWGGWAGDIDYWGQGTLVTVSSASTKGPSVFPLAPSSKSTSGGTAALGCLVKDYFPEPVTVSWNSGALTSGVHTFPAVLQSSGLYSLTSVVEVPSSSLGTQTYICNVNHKPSNTKVDKKVEPKSC
notes: as for B3
- Kd [4]: < 0.001 nM
- koff [4]: < 1e-07 s⁻¹
- kon [4]: 28000 M⁻¹ s⁻¹
- EC50 (read off the curve) [6]: ~3 nM

B5: Multi38 (bispecific antibody)
heavy 1: not shown
light: not shown
heavy 2: EVQLLESGGGLVQPGGSLRLSCAASGFTFGDHAMSWVREAPGKGLEWVSAISGYGHSTGYADSVKGRFTISRDNSKNTLYLQMNSLRAEDTAVYYCARNHYRVGLDYWGQGTLVTVSSASTKGPSVFPLAPSSKSTSGGTAALGCLVKDYFPEPVTVSWNSGALTSGVHTFPAVLQSSGLYSLTSVVEVPSSSLGTQTYICNVNHKPSNTKVDKKVEPKSC
notes: Optimised RUBY format, CD40xCEACAM5 (Fab8); also called Muli38
- EC50 (read off the curve) [6]: ~2 nM

B6: AC_05330 (bispecific antibody)
heavy 1: not shown
light: not shown
heavy 2: EVQLLESGGGLVQPGGSLRLSCAASGFTFSSYAMSWVREAPGKGLEWVSAISGSGGSTYYADSVKGRFTISRDNSKNTLYLQMNSLRAEDTAVYYCARYYGGYYSAWMDYWGQGTLVTVSSASTKGPSVFPLAPSSKSTSGGTAALGCLVKDYFPEPVTVSWNSGALTSGVHTFPAVLQSSGLYSLSSVVEVPSSSLGTQTYICNVNHKPSNTKVDKKVEPKSC
notes: as AC_05293
- Kd [7]: 0.45 nM
- koff [7]: 1.6e-05 s⁻¹
- kon [7]: 35000 M⁻¹ s⁻¹
